Measurements from the supplement of paper PMC9112550, “Optimization of the antimicrobial peptide Bac7 by deep mutational scanning” (BMC Biology, 2022).

Tested on: Escherichia coli TOP10
Test: shrunken log2 fold change of peptide-encoding DNA abundance (4.5 h post-induction vs induction); higher = less antimicrobial activity (less host growth inhibition)
Settings: time post-induction: 4.5 h; library: site-saturation at positions 5, 18, 19, 20
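Also: peptides expressed intracellularly from a pBAD plasmid library in pooled LB shake-flask culture, induced with 0.3% L-arabinose, DNA abundance read by NGS, three biological replicates, DESeq2 with apeglm shrinkage.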

Row | Sequence | shrunken log2 fold change
1 | RRIRERPPRLPRPRPRPSPPPRP | -0.013
2 | RRIRMRPPRLPRPRPRPHGCPRP | 0.669
3 | RRIRLRPPRLPRPRPRPWLEPRP | -0.212
4 | RRIRGRPPRLPRPRPRPGYCPRP | -0.183
5 | RRIRQRPPRLPRPRPRPTTFPRP | -0.485
6 | RRIRMRPPRLPRPRPRPELLPRP | 3.52
7 | RRIRVRPPRLPRPRPRPFHWPRP | -0.0122
8 | RRIRCRPPRLPRPRPRPTHPPRP | 0.164
9 | RRIRWRPPRLPRPRPRPMHTPRP | 0.643
10 | RRIRERPPRLPRPRPRPDLYPRP | -0.0156
11 | RRIRVRPPRLPRPRPRPVNRPRP | -0.142
12 | RRIRQRPPRLPRPRPRPYPRPRP | -0.258
13 | RRIRGRPPRLPRPRPRPEFCPRP | 1.23
14 | RRIRWRPPRLPRPRPRPGLIPRP | 0.336
15 | RRIRIRPPRLPRPRPRPRPTPRP | 0.152
16 | RRIRKRPPRLPRPRPRPYKVPRP | -0.558
17 | RRIRLRPPRLPRPRPRPHDYPRP | -0.398
18 | RRIRARPPRLPRPRPRPVNDPRP | 0.584
19 | RRIRFRPPRLPRPRPRPAKPPRP | 0.901
20 | RRIRVRPPRLPRPRPRPTKNPRP | -0.00729
21 | RRIRYRPPRLPRPRPRPGIEPRP | -0.276
22 | RRIRQRPPRLPRPRPRPSHIPRP | -0.0881
23 | RRIRLRPPRLPRPRPRPGLCPRP | 0.234

Row | Sequence | shrunken log2 fold change
24 | RRIRKRPPRLPRPRPRPSMAPRP | 0.0554
25 | RRIRSRPPRLPRPRPRPISFPRP | -0.216
26 | RRIRRRPPRLPRPRPRPCDDPRP | -0.0703
27 | RRIRERPPRLPRPRPRPCRHPRP | -0.00171
28 | RRIRTRPPRLPRPRPRPIHHPRP | -0.124
29 | RRIRVRPPRLPRPRPRPQNKPRP | -0.497
30 | RRIRVRPPRLPRPRPRPCNPPRP | -0.182
31 | RRIRQRPPRLPRPRPRPKGLPRP | 0.0353
32 | RRIRTRPPRLPRPRPRPVEGPRP | -0.194
33 | RRIRSRPPRLPRPRPRPSWFPRP | -0.268
34 | RRIRMRPPRLPRPRPRPHYWPRP | -0.121
35 | RRIRFRPPRLPRPRPRPVIAPRP | -0.186
36 | RRIRTRPPRLPRPRPRPHTFPRP | -0.431
37 | RRIRHRPPRLPRPRPRPLSHPRP | -0.00358
38 | RRIRCRPPRLPRPRPRPPMDPRP | 0.0314
39 | RRIRLRPPRLPRPRPRPTWAPRP | 0.17
40 | RRIRQRPPRLPRPRPRPQPRPRP | 0.48
41 | RRIRRRPPRLPRPRPRPCWSPRP | -0.0452
42 | RRIRQRPPRLPRPRPRPHMLPRP | -1.18
43 | RRIRIRPPRLPRPRPRPNQLPRP | -0.136
44 | RRIRWRPPRLPRPRPRPYVWPRP | -0.0228
45 | RRIRQRPPRLPRPRPRPIRDPRP | -0.161
46 | RRIRWRPPRLPRPRPRPSYRPRP | -0.895

Row | Sequence | shrunken log2 fold change
47 | RRIRPRPPRLPRPRPRPVMCPRP | 0.218
48 | RRIRHRPPRLPRPRPRPQEFPRP | -0.00101
49 | RRIRIRPPRLPRPRPRPDRPPRP | -0.0549
50 | RRIRFRPPRLPRPRPRPQSQPRP | 0.0846
51 | RRIRDRPPRLPRPRPRPTDSPRP | -0.0622
52 | RRIRGRPPRLPRPRPRPQNTPRP | 0.0999
53 | RRIRHRPPRLPRPRPRPACPPRP | -0.0965
54 | RRIRIRPPRLPRPRPRPEHCPRP | 0.0755
55 | RRIRQRPPRLPRPRPRPRRNPRP | 0.327
56 | RRIRIRPPRLPRPRPRPESIPRP | -0.12
57 | RRIRGRPPRLPRPRPRPETCPRP | 0.613
58 | RRIRQRPPRLPRPRPRPDMRPRP | 0.0308
59 | RRIRPRPPRLPRPRPRPRFIPRP | -0.184
60 | RRIRTRPPRLPRPRPRPSYQPRP | -0.18
61 | RRIRFRPPRLPRPRPRPGEQPRP | -0.0185
62 | RRIRTRPPRLPRPRPRPQIMPRP | -0.337
63 | RRIRYRPPRLPRPRPRPKKLPRP | -0.647
64 | RRIRIRPPRLPRPRPRPGTMPRP | -0.112
65 | RRIRMRPPRLPRPRPRPSNRPRP | -0.0397
66 | RRIRFRPPRLPRPRPRPHLLPRP | -0.428
67 | RRIRPRPPRLPRPRPRPVAGPRP | 0.308
68 | RRIRYRPPRLPRPRPRPNMYPRP | -0.411
69 | RRIRFRPPRLPRPRPRPYCMPRP | -0.929

Row | Sequence | shrunken log2 fold change
70 | RRIRYRPPRLPRPRPRPHEPPRP | -0.133
71 | RRIRLRPPRLPRPRPRPTDDPRP | -0.0495
72 | RRIRIRPPRLPRPRPRPLTHPRP | -0.358
73 | RRIRMRPPRLPRPRPRPVMGPRP | 0.387
74 | RRIRCRPPRLPRPRPRPYCNPRP | -1.19
75 | RRIRLRPPRLPRPRPRPHTPPRP | -0.295
76 | RRIRIRPPRLPRPRPRPDTCPRP | 0.0578
77 | RRIRIRPPRLPRPRPRPWEDPRP | -0.202
78 | RRIRKRPPRLPRPRPRPKPPPRP | 0.76
79 | RRIRVRPPRLPRPRPRPLLHPRP | -0.114
80 | RRIRKRPPRLPRPRPRPYCQPRP | -0.773
81 | RRIRSRPPRLPRPRPRPDTFPRP | 0.024
82 | RRIRYRPPRLPRPRPRPIDQPRP | -0.0356
83 | RRIRIRPPRLPRPRPRPMSRPRP | -0.24
84 | RRIRCRPPRLPRPRPRPGTIPRP | 0.00164
85 | RRIRGRPPRLPRPRPRPVPIPRP | 0.372
86 | RRIRWRPPRLPRPRPRPQIEPRP | 0.0601
87 | RRIRKRPPRLPRPRPRPFQPPRP | 0.0366
88 | RRIRDRPPRLPRPRPRPHRIPRP | -0.00804
89 | RRIRFRPPRLPRPRPRPEEHPRP | -0.0677
90 | RRIRIRPPRLPRPRPRPCFMPRP | -0.378
91 | RRIRQRPPRLPRPRPRPVLDPRP | 0.0663
